The source of these data is patent publication US20120316071A1 (published 2012).

One may read the Kd as the concentration at which binding is half-saturated. Usually koff stands for the first-order rate constant of dissociation. As usually defined, the kon is the rate constant with which the complex forms.

B1: Fab VH1-46_IGHD6-6*01_IGHJ1*01 & L6_IGKJ1*01 (Fab, V domains shown)
VH: QVQLVQSGAEVKKPGASVKVSCKASGYTFTSYYMHWVRQAPGQGLEWMGIINPSGGSTSYAQKFQGRVTMTRDTSTSTVYMELSSLRSEDTAVYYCAREEYSSSSAEYFQHWGQGTLVTVSS
VL: not shown
notes: Fab expressed in E. coli; VH was cloned into Plasmid A (heavy chain CH1 constant region, His6 and Flag tags) and VL into Plasmid C (kappa CL); also called parental; wildtype
B2: Fab VH1-46_IGHD6-6*01_IGHJ1*01 S102A/S103P/S104F/H111F I51V/N52L/S54T/G56H (APFF VLTH) & L6_IGKJ1*01 S28N/S30D/S31H S52L/A55S (NDH LS) (Fab, V domains shown)
VH: B1 VH with I51V, N52L, S54T, G56H, S102A, S103P, S104F, H111F
VL: EIVLTQSPATLSLSPGERATLSCRASQNVDHYLAWYQQKPGQAPRLLIYDALNRSTGIPARFSGSGSGTDFTLTISSLEPEDFAVYYCQQRSNWPPWTFGQGTKVEIKR
notes: Fab with CH1 (Plasmid A, His6 and Flag tags) and kappa CL (Plasmid C); also called H:APFF VLTH & L:NDH LS
B3: Fab VH1-46_IGHD6-6*01_IGHJ1*01 S102A/S103P/S104F/H111F (APFF) & L6_IGKJ1*01 (Fab, V domains shown)
VH: B1 VH with S102A, S103P, S104F, H111F
VL: not shown
notes: Fab with CH1 (Plasmid A, His6 and Flag tags) and kappa CL (Plasmid C); also called H:APFF & L:wt
B4: Fab VH1-46_IGHD6-6*01_IGHJ1*01 S104F & L6_IGKJ1*01 (Fab, V domains shown)
VH: B1 VH with S104F
VL: not shown
notes: Fab with CH1 (Plasmid A, His6 and Flag tags) and kappa CL (Plasmid C)
B5: Fab VH1-46_IGHD6-6*01_IGHJ1*01 S102A/S103P/S104F (APF) & L6_IGKJ1*01 (Fab, V domains shown)
VH: B1 VH with S102A, S103P, S104F
VL: not shown
notes: Fab with CH1 (Plasmid A, His6 and Flag tags) and kappa CL (Plasmid C); also called H:APF & L:wt; APF triple mutant
B6: Fab VH1-46_IGHD6-6*01_IGHJ1*01 S102A/S103P/S104F (APF) & L6_IGKJ1*01 S31K (Fab, V domains shown)
VH: B1 VH with S102A, S103P, S104F
VL: B2 VL with N28S, D30S, H31K, L52S, S55A
notes: as for B4
B7: Fab VH1-46_IGHD6-6*01_IGHJ1*01 S102A/S103P/S104F/H111F I51V/N52L/S54T/G56H (APFF VLTH) & L6_IGKJ1*01 S28N/S30D/S31H (NDH) (Fab, V domains shown)
VH: B1 VH with I51V, N52L, S54T, G56H, S102A, S103P, S104F, H111F
VL: B2 VL with L52S, S55A
notes: Fab with CH1 (Plasmid A, His6 and Flag tags) and kappa CL (Plasmid C); also called H:APFF VLTH & L:NDH
B8: Fab VH1-46_IGHD6-6*01_IGHJ1*01 S102A/S103P/S104F/H111F G56H (APFF G56H) & L6_IGKJ1*01 (Fab, V domains shown)
VH: B1 VH with G56H, S102A, S103P, S104F, H111F
VL: not shown
notes: as for B4
B9: Fab VH1-46_IGHD6-6*01_IGHJ1*01 S102A/S103P/S104F/H111Y (APFY) & L6_IGKJ1*01 (Fab, V domains shown)
VH: B1 VH with S102A, S103P, S104F, H111Y
VL: not shown
notes: as for B4
B10: Fab VH5-51_IGHD5-18*01>3_IGHJ4*01 G100K/G104T G24T/S28R/G35V & V3-4_IGLJ1*01 V91L/S96P S52W (Fab, V domains shown)
VH: EVQLVQSGAEVKKPGESLKISCKTSGYRFTSYWIVWVRQMPGKGLEWMGIIYPGDSDTRYSPSFQGQVTISADKSISTAYLQWSSLKASDTAMYYCARRKYSYTYDYFDYWGQGTLVTVSS
VL: QTVVTQEPSFSVSPGGTVTLTCGLSSGSVSTSYYPSWYQQTPGQAPRTLIYWTNTRSSGVPDRFSGSILGNKAALTITGAQADDESDYYCLLYMGPGISYVFGTGTKVTVL
notes: Fab expressed in E. coli; heavy chain vector adds CH1 with His6 and Flag tags, light chain vector adds lambda CL; also called H:KT TRV & L:LP S52W
B11: Fab VH5-51_IGHD5-18*01>3_IGHJ4*01 G100K/G104T G24T/S28R/G35V & V3-4_IGLJ1*01 V91L/S96P T53L (Fab, V domains shown)
VH: B10 VH
VL: B10 VL with W52S, T53L
notes: Fab expressed in E. coli; heavy chain vector adds CH1 with His6 and Flag tags, light chain vector adds lambda CL; also called H:KT TRV & L:LP T53L
B12: Fab VH5-51_IGHD5-18*01>3_IGHJ4*01 G100K/G104T G24T/S28R/G35V & V3-4_IGLJ1*01 V91L/S96P T53F (Fab, V domains shown)
VH: B10 VH
VL: B10 VL with W52S, T53F
notes: Fab expressed in E. coli; heavy chain vector adds CH1 with His6 and Flag tags, light chain vector adds lambda CL; also called H:KT TRV & L:LP T53F
B13: Fab VH5-51_IGHD5-18*01>3_IGHJ4*01 G100K/G104T G24T/S28R/G35V & V3-4_IGLJ1*01 V91L/S96P T53K (Fab, V domains shown)
VH: B10 VH
VL: B10 VL with W52S, T53K
notes: Fab expressed in E. coli; heavy chain vector adds CH1 with His6 and Flag tags, light chain vector adds lambda CL; also called H:KT TRV & L:LP T53K
B14: Fab VH5-51_IGHD5-18*01>3_IGHJ4*01 G100K/G104T G24T/S28R/G35V & V3-4_IGLJ1*01 V91L/S96P T53N (Fab, V domains shown)
VH: B10 VH
VL: B10 VL with W52S, T53N
notes: Fab expressed in E. coli; heavy chain vector adds CH1 with His6 and Flag tags, light chain vector adds lambda CL; also called H:KT TRV & L:LP T53N
B15: Fab VH5-51_IGHD5-18*01>3_IGHJ4*01 G100K/G104T G24T/S28R/G35V & V3-4_IGLJ1*01 V91L/S96P T53V (Fab, V domains shown)
VH: B10 VH
VL: B10 VL with W52S, T53V
notes: Fab expressed in E. coli; heavy chain vector adds CH1 with His6 and Flag tags, light chain vector adds lambda CL; also called H:KT TRV & L:LP T53V
B16: Fab VH5-51_IGHD5-18*01>3_IGHJ4*01 G100K/G104T G24T/S28R/G35V & V3-4_IGLJ1*01 V91L/S96P T53Q (Fab, V domains shown)
VH: B10 VH
VL: B10 VL with W52S, T53Q
notes: Fab expressed in E. coli; heavy chain vector adds CH1 with His6 and Flag tags, light chain vector adds lambda CL; also called H:KT TRV & L:LP T53Q
B17: Fab VH5-51_IGHD5-18*01>3_IGHJ4*01 G100K/G104T G24T/S28R/G35V & V3-4_IGLJ1*01 V91L/S96P T53H (Fab, V domains shown)
VH: B10 VH
VL: B10 VL with W52S, T53H
notes: Fab expressed in E. coli; heavy chain vector adds CH1 with His6 and Flag tags, light chain vector adds lambda CL; also called H:KT TRV & L:LP T53H
B18: Fab VH5-51_IGHD5-18*01>3_IGHJ4*01 G100K/G104T G24T/S28R/G35V & V3-4_IGLJ1*01 V91L/S96P T53I (Fab, V domains shown)
VH: B10 VH
VL: B10 VL with W52S, T53I
notes: Fab expressed in E. coli; heavy chain vector adds CH1 with His6 and Flag tags, light chain vector adds lambda CL; also called H:KT TRV & L:LP T53I
B19: Fab VH5-51_IGHD5-18*01>3_IGHJ4*01 G100K/G104T G24T/S28R/G35V & V3-4_IGLJ1*01 V91L/S96P T53E (Fab, V domains shown)
VH: B10 VH
VL: B10 VL with W52S, T53E
notes: Fab expressed in E. coli; heavy chain vector adds CH1 with His6 and Flag tags, light chain vector adds lambda CL; also called H:KT TRV & L:LP T53E
B20: Fab VH5-51_IGHD5-18*01>3_IGHJ4*01 G100K/G104T G24T/S28R/G35V & V3-4_IGLJ1*01 V91L/S96P T53Y (Fab, V domains shown)
VH: B10 VH
VL: B10 VL with W52S, T53Y
notes: Fab expressed in E. coli; heavy chain vector adds CH1 with His6 and Flag tags, light chain vector adds lambda CL; also called H:KT TRV & L:LP T53Y
B21: Fab VH5-51_IGHD5-18*01>3_IGHJ4*01 G100K/G104T G24T/S28R/G35V & V3-4_IGLJ1*01 V91L/S96P T53S (Fab, V domains shown)
VH: B10 VH
VL: B10 VL with W52S, T53S
notes: Fab expressed in E. coli; heavy chain vector adds CH1 with His6 and Flag tags, light chain vector adds lambda CL; also called H:KT TRV & L:LP T53S
B22: Fab VH5-51_IGHD5-18*01>3_IGHJ4*01 G100K/G104T G24T/S28R/G35V & V3-4_IGLJ1*01 V91L/S96P T53P (Fab, V domains shown)
VH: B10 VH
VL: B10 VL with W52S, T53P
notes: Fab expressed in E. coli; heavy chain vector adds CH1 with His6 and Flag tags, light chain vector adds lambda CL; also called H:KT TRV & L:LP T53P
B23: Fab VH5-51_IGHD5-18*01>3_IGHJ4*01 G100K/G104T G24T/S28R/G35V & V3-4_IGLJ1*01 V91L/S96P T53D (Fab, V domains shown)
VH: B10 VH
VL: B10 VL with W52S, T53D
notes: Fab expressed in E. coli; heavy chain vector adds CH1 with His6 and Flag tags, light chain vector adds lambda CL; also called H:KT TRV & L:LP T53D
B24: Fab VH5-51_IGHD5-18*01>3_IGHJ4*01 G100K/G104T G24T/S28R/G35V & V3-4_IGLJ1*01 V91L/S96P S52Y (Fab, V domains shown)
VH: B10 VH
VL: B10 VL with W52Y
notes: Fab expressed in E. coli; heavy chain vector adds CH1 with His6 and Flag tags, light chain vector adds lambda CL; also called H:KT TRV & L:LP S52Y

Positions count from the first letter of the chain named. Names and notes keep the numbering of the source.

One test deals with T1, Recombinant Human DLL4 (delta-like protein 4) (human, UniProt Q9NR61 27-524).
T1 construct: Bought recombinant human DLL4 (R&D Systems Cat#1506-D4/CF); also called rHuman DLL4; Delta-like ligand 4
The experiment in a line: SPR, Fab on recombinant human DLL4. Background: SPR reads the build-up and loss of mass on a sensor chip optically.
On to B1, for which the Kd stood at 730 nM, the koff is 0.101 s⁻¹ and the kon came out at 163000 M⁻¹ s⁻¹.
For B2, the Kd was 1.7 nM, the koff worked out at 0.00109 s⁻¹ and the kon amounted to 684000 M⁻¹ s⁻¹.
In the same order, the values of B3 are 70.6 nM, 0.03 s⁻¹ and 425000 M⁻¹ s⁻¹.
The like results for B4 were, in that order, 380 nM, 0.19 s⁻¹ and 500000 M⁻¹ s⁻¹.
In the same order, the values of B5 are 122 nM, 0.0492 s⁻¹ and 405000 M⁻¹ s⁻¹.
With B6, the Kd stood at 112 nM, the koff is 0.0392 s⁻¹ and the kon stood at 350000 M⁻¹ s⁻¹.
Consider B7, for which the Kd was found to be 2.7 nM, the koff is 0.00113 s⁻¹ and the kon came to 430000 M⁻¹ s⁻¹.
In the same order, the values of B8 are 32.7 nM, 0.0101 s⁻¹ and 351000 M⁻¹ s⁻¹.
The like results for B9 were, in that order, 93.1 nM, 0.0317 s⁻¹ and 340000 M⁻¹ s⁻¹.

In another test the target is T2, Recombinant Human DLL4 (delta-like protein 4) (human, UniProt Q9NR61 27-524).
T2 construct: also called rHuman DLL4; Delta-like 4
The test can be described thus: ELISA, DLL4 coated on plate, Fab at 100 nM. For orientation: ELISA stands for enzyme-linked immunosorbent assay.
As to B10, the “ELISA Signal-blank (100 nM Fab)” value was 0.29.
Still for that read-out and setting: with B11 the figure was 0.18; with B12, 0.15.
On the same count and under the same terms, with B13 the figure was 0.12; with B14, 0.15.
Still for that read-out and setting: with B15 the figure was 0.29.
As to B16, the “ELISA Signal-blank (100 nM Fab)” value amounted to 0.11.
Take B17: the “ELISA Signal-blank (100 nM Fab)” value turned out to be 0.14.
Turning to B18, the “ELISA Signal-blank (100 nM Fab)” value turned out to be 0.3.
For the molecule B19, the “ELISA Signal-blank (100 nM Fab)” value came to 0.09.
Take B20: the “ELISA Signal-blank (100 nM Fab)” value is 0.22.
Turning to B21, the “ELISA Signal-blank (100 nM Fab)” value is 0.18.
On the same count and under the same terms, the same measure for B22: 0.39; for B23: 0.16.
Same read-out and setting: the same measure for B24: 0.41.
